Holding throughout (assay): ELISA, antibody coated, 250 ng FLAG-tagged mutant Ang-2, anti-FLAG-HRP, OD450 relative to native Ang-2
A general note: In an ELISA, binding on a coated surface is turned into a signal by an enzyme label.

Assay [1] addresses T1, mutant Ang-2 protein, P419 substituted with alanine (FLAG-tagged at N-terminal) (human, UniProt O15123 281-496, limits assumed).
T1 chain: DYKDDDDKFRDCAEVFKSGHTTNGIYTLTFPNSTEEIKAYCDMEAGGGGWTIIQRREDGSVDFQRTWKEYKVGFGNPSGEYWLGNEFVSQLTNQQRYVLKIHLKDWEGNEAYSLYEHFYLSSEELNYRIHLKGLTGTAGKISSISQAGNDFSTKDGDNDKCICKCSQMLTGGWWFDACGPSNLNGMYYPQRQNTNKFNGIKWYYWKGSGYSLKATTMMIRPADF
The protocol: (§1) Each well of a 96-well MaxiSorp™ flat-bottom plate (Nunc) was coated with 50 ul (microliter) of 1000 nM antibodies (Example 2). Then, the plate was washed five times with a 0.05% (v/v) Tween-20 containing PBS (PBST) and blocked with a 1% (v/v) BSA containing PBS at a room temperature for 2 hours. 250 ng of each mutant Ang-2 protein obtained by substituting S417, Q418, P419, N421, 1434, D448, A449, P452, Y460, N467, K468, or F469 residue of Ang-2 protein tagged with a FLAG sequence ([…], Sigma) at its N-terminal with alanine was added to each well of the plate, which was then allowed to react at a room temperature for 2 hours.
(§2) The plate was washed five times with a 0.05% (v/v) Tween-20 containing PBS, reacted with an anti-FLAG antibody (SIGMA) conjugated with HRP which was diluted in a 1% (v/v) BSA containing PBS at a ratio of 1:5,000 (v/v) at a room temperature for 1 hour, and washed five times with a 0.1% (v/v) Tween-20 containing PBS.
(§3) Finally, 50 ul of TMB substrates (Cell signaling) was added to each well of the plate to induce color development reaction at a room temperature for 3 min. and the reaction was ceased by the addition of 50 ul of Stop solution (Cell signaling) and then, OD450 values were measured on a plate reader (Molecular Devices). By comparing binding affinities with mutated Ang-2 to those of unmutated Ang-2, each epitope of Ang-2 antibodies was identified. The thus obtained measurement results of the binding affinities (%) of mutant Ang-2 against the binding affinity of the native Ang-2 are shown in the following Table 9.

Assay [2] concerns the target T2, mutant Ang-2 protein, I434 substituted with alanine (FLAG-tagged at N-terminal) (human, UniProt O15123 281-496, limits assumed).
T2 construct: also called 1434
T2 chain: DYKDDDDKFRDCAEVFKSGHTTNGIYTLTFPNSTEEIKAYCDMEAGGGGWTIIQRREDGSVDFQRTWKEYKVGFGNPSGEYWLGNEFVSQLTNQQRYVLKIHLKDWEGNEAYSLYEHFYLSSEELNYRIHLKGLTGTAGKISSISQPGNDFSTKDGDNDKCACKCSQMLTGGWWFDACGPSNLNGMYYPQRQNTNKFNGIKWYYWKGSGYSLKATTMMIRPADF
The protocol:
as §1, §2, §3

Assay [3] concerns the target T3, mutant Ang-2 protein, K468 substituted with alanine (FLAG-tagged at N-terminal) (human, UniProt O15123 281-496, limits assumed).
T3 chain: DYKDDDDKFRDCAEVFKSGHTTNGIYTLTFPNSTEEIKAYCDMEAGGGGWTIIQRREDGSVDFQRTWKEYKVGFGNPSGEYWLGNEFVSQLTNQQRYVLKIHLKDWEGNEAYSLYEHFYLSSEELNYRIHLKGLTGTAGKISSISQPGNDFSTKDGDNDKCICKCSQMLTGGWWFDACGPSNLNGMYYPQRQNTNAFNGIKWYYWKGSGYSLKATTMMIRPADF
The procedure:
as §1, §2, §3

Assay [4] has as its target T4, mutant Ang-2 protein, N421 substituted with alanine (FLAG-tagged at N-terminal) (human, UniProt O15123 281-496, limits assumed).
T4 chain: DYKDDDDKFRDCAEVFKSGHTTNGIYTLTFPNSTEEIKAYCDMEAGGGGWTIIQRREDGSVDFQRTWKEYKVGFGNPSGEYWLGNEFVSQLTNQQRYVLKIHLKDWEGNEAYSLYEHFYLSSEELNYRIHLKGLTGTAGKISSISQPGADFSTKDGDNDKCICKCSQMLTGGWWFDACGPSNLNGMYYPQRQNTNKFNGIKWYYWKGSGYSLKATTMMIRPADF
The procedure: as §1, §2, §3

Assay [5] addresses T5, mutant Ang-2 protein, Q418 substituted with alanine (FLAG-tagged at N-terminal) (human, UniProt O15123 281-496, limits assumed).
T5 construct: also called Q418A mutant protein; Ang-2 protein having Q418A mutation
T5 chain: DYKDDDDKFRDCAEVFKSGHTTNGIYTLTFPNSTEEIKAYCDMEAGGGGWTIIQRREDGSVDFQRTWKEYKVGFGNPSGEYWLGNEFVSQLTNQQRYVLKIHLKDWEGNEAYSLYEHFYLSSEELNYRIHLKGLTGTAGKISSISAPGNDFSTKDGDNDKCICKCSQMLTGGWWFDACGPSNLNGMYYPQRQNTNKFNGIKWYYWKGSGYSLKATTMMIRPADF
The protocol: as §1, §2, §3

Assay [6] addresses T6, mutant Ang-2 protein, F469 substituted with alanine (FLAG-tagged at N-terminal) (human, UniProt O15123 281-496, limits assumed).
T6 chain: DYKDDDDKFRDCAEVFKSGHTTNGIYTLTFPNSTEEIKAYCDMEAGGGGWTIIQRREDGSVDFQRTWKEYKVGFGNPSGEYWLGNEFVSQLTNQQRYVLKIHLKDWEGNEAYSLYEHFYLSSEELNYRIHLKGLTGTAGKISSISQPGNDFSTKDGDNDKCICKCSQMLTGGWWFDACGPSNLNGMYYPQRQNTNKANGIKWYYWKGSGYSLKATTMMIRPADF
The procedure: as §1, §2, §3

B1: SAIT-Ang-2-AB-m8B3 (antibody, V domains shown)
VH: DVQLQESGPGLVKPSQSLSLSCTVTGYSIASDYAWNWIRQFPGNKVEWMGYINYRGNTDYNPSLKSRSSINRDTSKNQFFLQLNSVTTGDTATYYCARGNFEGAMDYWGQGTSVTVSS
VL: TIVMTQTPKFLLVSAGDRITITCKASQSVSNDVAWYQQKPGQSPKLLIYYASNRYPGVPDRFTGSGYGTDFTFTISTVQAEDLAVYFCQQDYTSPWTFGGGTELEIK
notes: also called KCLRF-BP-00293
In the case of B1, the “% at RBD binding (mutant Ang-2 against native Ang-2)” value in assay [1] stood at 8.7%; in assay [2], 99.4%; in assay [3], 105%; in assay [4], 102%; in assay [5] it was 4.1%; in assay [6] it was 106%.

B2: SAIT-Ang-2-AB-m2E7 (antibody, V domains shown)
VH: DLQLQESGPGLVKPSQSLSLTCTVTGYSITSDYAWNWIRQFPGNKLEWMGYISYSGSTSYNPSLKSRISITRDTSKNQFFLQLNSLTTEDTATYYCARGDYGNYVGPMDYWGQGTSVTVSS
VL: SIVMTQTPKFLLVSAGDRVTITCKASQSVSNDVAWYRQKPGQSPKLLIYYASNRYTGVPDRFTGSGYGTDFTFTISTVQAEDLAVYFCQQDYSSPLTFGARTKLELK
notes: also called KCLRF-BP-00294
Turning to B2, the “% at RBD binding (mutant Ang-2 against native Ang-2)” value in assay [1] was determined as 88.6%; in assay [2], 102%; in assay [3], 101%; in assay [4], 98.9%; in assay [5] it was 0.6%; in assay [6] it was 102%.
